Where a chain is given by its changes, count along the chain named.

In assay [1] the target is T1, human B7H4 (human, UniProt Q7Z7D3 25-282).
T1 sequence (looked up): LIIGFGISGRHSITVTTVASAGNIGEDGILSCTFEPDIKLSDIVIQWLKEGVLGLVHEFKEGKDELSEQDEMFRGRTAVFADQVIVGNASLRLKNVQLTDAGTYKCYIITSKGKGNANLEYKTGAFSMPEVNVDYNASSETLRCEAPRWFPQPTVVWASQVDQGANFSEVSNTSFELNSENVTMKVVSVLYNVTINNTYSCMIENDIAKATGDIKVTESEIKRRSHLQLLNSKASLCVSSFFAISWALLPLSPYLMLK
The assay is described as follows: cell-based or functional assay.

Assay [2] deals with T1, human B7H4. As to the kind of experiment: cell-based or functional assay. The source holds these as a separate data set.
In assay [3] the target is T2, human B7-H7 (HHLA2) (human, UniProt Q9UM44 23-414).
T2 construct: whole, on cells
T2 sequence (looked up): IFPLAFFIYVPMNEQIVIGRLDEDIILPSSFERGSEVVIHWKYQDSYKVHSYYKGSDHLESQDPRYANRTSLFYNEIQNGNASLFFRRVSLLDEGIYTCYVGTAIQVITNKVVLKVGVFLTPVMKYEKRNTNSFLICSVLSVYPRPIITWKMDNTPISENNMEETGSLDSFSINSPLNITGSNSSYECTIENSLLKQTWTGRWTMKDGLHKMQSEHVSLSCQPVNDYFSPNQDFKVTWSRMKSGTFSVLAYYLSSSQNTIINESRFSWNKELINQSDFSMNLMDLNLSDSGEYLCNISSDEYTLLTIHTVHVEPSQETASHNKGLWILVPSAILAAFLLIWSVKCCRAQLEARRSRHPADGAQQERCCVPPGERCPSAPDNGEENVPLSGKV
The assay is described as follows: flow cytometry on CHO-KI cells stably expressing human B7-H7 (HHLA2), one concentration.

Assay [4] deals with T3, mouse B7H4 (mouse, UniProt Q7TSP5 25-257).
T3 construct: whole, on cells; also called Mouse B7H4-293T
T3 sequence (looked up): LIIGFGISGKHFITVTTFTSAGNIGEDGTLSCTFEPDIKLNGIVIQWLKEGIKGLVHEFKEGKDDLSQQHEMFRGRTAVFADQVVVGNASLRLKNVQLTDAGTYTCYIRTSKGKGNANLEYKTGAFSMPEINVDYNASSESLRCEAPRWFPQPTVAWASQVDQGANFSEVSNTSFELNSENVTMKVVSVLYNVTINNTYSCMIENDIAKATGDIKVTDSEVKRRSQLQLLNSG
As to the kind of experiment: flow cytometry on mouse B7H4-transfected HEK293T cells, PE anti-human IgG Fc secondary antibody. On the technique in general: A flow cytometer gives signals particle by particle.

The target of assay [5] is T4, cynomolgus monkey B7H4 (cynomolgus monkey, UniProt A0A2K5U6P5 25-282).
T4 construct: whole, on cells; also called Monkey B7H4-293T
T4 sequence: T1 sequence (looked up) with L53I, F242L, S252A
The assay is described as follows: flow cytometry on cynomolgus monkey B7H4-transfected HEK293T cells, PE anti-human IgG Fc secondary antibody.

B1: antibody-drug conjugate DB1001-X2 (antibody, DAR 5.4, V domains shown)
VH: QVQLVESGGGVVQPGRSLRLSCAASGFTFRSFGMHWVRQAPGKGLEWVAVISYDASNEYYADSVKGRFIISRDNSKDTLYLQMNSLRAGDTAVYYCAKGGALRWYFAYWGQGTLVTVSS
VL: EIVMTQSPATLSVSPGERATLSCRASQSISSNLGWYQQKPGQAPRLLIYGASTRATGIPARFSGSGSGTEFTLTISSLQSEDFAVYYCQQYRSWPPLTFGGGTKVEIKR
modifications: linker-cytotoxin X2 (payload P-III-30) coupled after TCEP reduction of the antibody; drug-to-antibody ratio (DAR) of 5.4; conjugation residues not stated
notes: also called anti-B7H4 ADC DB1001-X2
What is called EC50 is the concentration at which the effect is half-maximal. With B1, in assay [1], the “IC50 (nM), in vitro proliferation inhibition of MDA-MB-468 cells (CTG, 7 days)” value was found to be 50.7 nM. For the same molecule, in assay [2], the “IC50 (nM), proliferation inhibition of MX-1 cells with high expression of B7H4 (3D culture, CTG)” value came to 52.4 nM and the “IC50 (nM), proliferation inhibition of RL95-2 cells with low expression of B7H4 (3D culture, CTG)” value was 69.4 nM. The binding result in assay [3] is “no binding (tested: 100 nM or 300 nM)”. In addition, the binding result in assay [4] is on record as “no binding (tested: highest concentration 100 nM)”. The molecule further came in with an EC50 in assay [5] of 5.36 nM.

For the origin of these results see patent US20250032630A1, “B7H4 ANTIBODY-DRUG CONJUGATE AND USE THEREOF” (Duality Biologics (Suzhou) Co., Ltd., priority 2022, published 2025).
